Biological target: the molecule itself
Test: elution peak in chromatography during purification; purification of His-tagged UrdA′; the sentence follows the HisTrap HP imidazole gradient; one large asymmetrical peak

B1: two-domain urocanate reductase UrdA′ (clamp domain and FAD-binding domain) from Shewanella oneidensis MR-1 (domain or fragment, Shewanella oneidensis (strain MR-1), UniProt Q8CVD0 130-582, looked up)
chain: EYTYDVVIIGSGGAGFSAGLEAIAAGRSAVIIEKMPIIGGNSLISGAEMNVAGSWVQKNMGITDSKELFISDTLKGGDFKGDPEMVKTMVDNAVGAAEWLRDYVKVEFYPDQLFQFGGHSVKRALIPKGHTGAEVISKFSIKADEVGLPIHTNTKAEKLIQDQTGRIVGVEAAHNGKTITYHAKRGVVIATGGFSSNMEMRKKYNPELDERYGSTGHAGGTGDGIVMAEKIHAAAKNMGYIQSYPICSPTSGAIALIADSRFFGAVLINQKGERFVEELERRDVISHAILAQPGRYTYVLWNQDIENVAHTVEMHQGELKEFTKDGLMYKVDTLEEAAKVFNIPEDKLLSTIKDVNHYAATGKDEAFNHRSGLVDLSKGPYWILKATPSVHHTMGGLVVDTRTRVLDEQGKVIPGLFAAGEVTGLTHGTNRLGGNAYTDIIVYGRIAGQEAAK
notes: Synthetic gene in pET-24a(+); The main peak fraction, mostly monomeric, was used for further experiments; also called UrdA′wt; Two-domain WT; source: E. coli TUNER (DE3), purified (HisTrap HP; size-exclusion chromatography before crystallization); not shown: 6xHis, C-terminal, kept
  binding result: binds

From PMC7921117, “Structural characterization of the microbial enzyme urocanate reductase mediating imidazole propionate production” (Nature Communications, 2021)
